Test results reported in patent US20210230273A1 (Alexion, published 2021).

Columns and labels:
[1] = biological target: T1, cell surface CD200 (human, UniProt P41217 31-278); assay: whole-blood CD200 receptor occupancy by flow cytometry, T cells (CD3+); unlabelled antibody incubated overnight, free CD200 against total CD200 (1B2-AF647)
T1 construct: whole, on cells; also called CD200 on CD200 expressing Raji cells; CD200+ Raji cells
T1 sequence (looked up): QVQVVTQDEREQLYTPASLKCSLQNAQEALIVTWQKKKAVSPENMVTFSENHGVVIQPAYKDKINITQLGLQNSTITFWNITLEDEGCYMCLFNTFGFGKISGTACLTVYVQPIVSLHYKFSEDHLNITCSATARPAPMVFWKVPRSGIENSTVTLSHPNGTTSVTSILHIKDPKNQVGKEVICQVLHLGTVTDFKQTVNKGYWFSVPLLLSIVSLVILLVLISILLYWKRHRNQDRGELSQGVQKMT
Description: (§1) Whole blood (including sodium heparin as anticoagulant) was added at 250 μL/FACs tube and sealed. Tubes were incubated at 25° C. in a temperature-controlled cabinet overnight to allow therapeutic antibody binding.
(§2) FACS Antibody Staining: Cells were blocked with Fc blocking reagent for 30 min. Red blood cells were lysed with hemolytic buffer; remaining cells were spun 800×g for 5 minutes, and the resulting cell pellet was washed twice with PBS. After final wash, cell pellets were resuspended into 200 μL PBS. Cells were stained with a fixable Live/Dead dye for 20 minutes protected from light, and then neutralized and washed with FACS buffer. After the final wash the cells were resuspended in 100 μL wash with FcR block. Labeled antibody cocktail mixes were prepared CD3-PE/CD19-FITC/Alexa-647 or CD3-PE/CD19-FITC/1B2-647 in blocking buffer as well as appropriate controls (single color and FMO). The appropriate amount of antibody was added and incubated with cells protected from light for 30 minutes at room temperature. […]
(§3) FACS Analysis: Data was acquired on an automated cell analyzer (BD Fortessa) by gating on lymphocytes, and single live cells followed by B cell (CD19+-FITC) and T cells (CD3-PE) populations. […] Percent receptor occupancy was calculated from the MFI (median fluorescence intensity) according to the following formula: […]

[2] = biological target: T1, cell surface CD200; assay: flow cytometry, inhibition of labelled CD200R-Fc binding to CD200+ Raji cells; n = 1
From the text: Next, the abilities of the newly-engineered anti-CD200 antibodies to antagonize CD200R were compared with that of samalizumab using CD200+ Raji cells. […] Binding of labeled CD200R-Fc was detected by flow cytometry.

[3] = biological target: T1, cell surface CD200; assay: whole-blood CD200 receptor occupancy by flow cytometry, B cells (CD19+); unlabelled antibody incubated overnight, free CD200 against total CD200 (1B2-AF647)
Description: as §1, §2, §3

B1: TPP-1143 (antibody, human IgG2, kappa, V domains shown)
VH: QVQLVQSGAEVKKPGASVKVSCKASGYSFTDYIILWVRQAPGQRLEWMGHIDPYYGSSNYNLKFKGRVTITRDTSASTAYMELSSLRSEDTAVYYCGRSKRDYFDYWGQGTLVTVSS
VL: DIQMTQSPSSLSASVGDRVTITCKASQDINSYLSWFQQKPGKAPKSLIYRANRLVDGVPSRFSGSGSGTDFTLTISSLQPEDFGTYYCLQYDEFPYTFGQGTKLEIKR
notes: mAb with human G2G4 Fc (effectorless); also called TPP-11143 (as printed once)
With B1 the “EC50 (read off the curve)” value [1] was roughly 4 ng/mL, the EC50 [2] was 0.186 nM and the “EC50 (read off the curve)” value [3] was roughly 4 ng/mL.
